The source of these data is patent US10578620B2, “Methods for detecting molecules in a sample” (The Francis Crick Institute Limited, priority 2013, dated 2020).

The subject of this experiment is pT308 (Akt phosphorylation). As to the kind of experiment: Two-site TSA-FRET for pT308 in FFPE human breast tumour, CIP specificity control. How it is done: TSA-FRET assay for quantification of pT308 was performed on 4-μm sections of two identical FFPE-fixed breast cancer tissue samples.
Following de-waxing and rehydration, sections were subjected to heat antigen retrieval by microwaving in TRIS-EDTA (pH 9.0) buffer, for 10 minutes at 800 W. Sections were then incubated in freshly prepared sodium borohydrate (1 mg/ml in PBS) buffer for 10 min at RT, followed by blocking with 1% BSA/PBS. Tissues sections were incubated with peroxidase suppressor (Thermo Scientific Pierce) for 15 min.
For the two-site TSAFRET assay, the first slide was incubated with mouse anti-panAkt (1:100), and the second slide with mouse anti-panAkt (1:100) and rabbit anti-pT308 (1:200) primary antibodies, for 16 hours at 4° C. The first slide was further immunolabeled with ORG488-conjugated anti-mouse Fab fragment secondary antibody (20 μg/ml). The second slide was immunolabeled with ORG488-conjugated anti-mouse Fab fragment (20 μg/ml) and HRP-conjugated anti-rabbit Fab fragment secondary antibody (10 μg/ml), which was detected by using Alexa-594-TSA assay. […]
The donor lifetimes of ORG488 were determined from at least 10 ROIs of the tumours, each performed in triplicate unless otherwise indicated. The FRET efficiency was calculated as described above (FIG. 4(a)-(c)).

B1: calf intestinal alkaline phosphatase (protein, UniProt P19111 20-506, looked up)
Intestinal-type alkaline …: LVPVEEEDPAFWNRQAAQALDVAKKLQPIQTAAKNVILFLGDGMGVPTVTATRILKGQMNGKLGPETPLAMDQFPYVALSKTYNVDRQVPDSAGTATAYLCGVKGNYRTIGVSAAARYNQCKTTRGNEVTSVMNRAKKAGKSVGVVTTTRVQHASPAGAYAHTVNRNWYSDADLPADAQMNGCQDIAAQLVNNMDIDVILGGGRKYMFPVGTPDPEYPDDASVNGVRKRKQNLVQAWQAKHQGAQYVWNRTALLQAADDSSVTHLMGLFEPADMKYNVQQDHTKDPTLQEMTEVALRVVSRNPRGFYLFVEGGRIDHGHHDDKAYMALTEAGMFDNAIAKANELTSELDTLILVTADHSHVFSFGGYTLRGTSIFGLAPSKALDSKSYTSILYGNGPGYALGGGSRPDVNDSTSEDPSYQQQAAVPQASETHGGEDVAVFARGPQAHLVHGVEEETFVAHIMAFAGCVEPYTDCNLPAPTTATSIPD
notes: phosphatase used as control to verify FRET signal is due to Akt phosphorylation
For the molecule B1, the “FRET efficiency (Ef) of panAkt+pT308 in CIP-treated tumour samples” value (CIP 10 units/slide 30 min, untreated Ef=6.0) is 1.5%. Further, the “change of FRET efficiency of the panAkt+pT308 signal in the CIP-treated condition” value (FIG. 4(c), p<0.0001) is listed as “reduction”.
